T1: recombinant human OX40-His protein (human, UniProt P43489 29-216)
T1 construct: also called polyhistidine-tagged recombinant human OX40; hOX40; not shown: polyhistidine tag
T1 sequence (looked up): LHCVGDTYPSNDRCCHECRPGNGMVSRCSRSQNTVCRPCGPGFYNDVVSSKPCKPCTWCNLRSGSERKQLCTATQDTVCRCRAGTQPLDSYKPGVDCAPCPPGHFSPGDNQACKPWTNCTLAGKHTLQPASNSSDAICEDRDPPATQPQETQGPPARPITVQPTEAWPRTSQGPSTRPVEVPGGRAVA

T2: OX40 receptor used in the functional ELISA of Example 12 (human, UniProt P43489 29-216)
T2 construct: also called hOX40
T2 sequence (looked up): T1 sequence (looked up)

T3: human OX40 expressed on Jurkat cells (Jurkat/hOX40) (human, UniProt P43489 29-277)
T3 construct: whole, on cells
T3 sequence (looked up): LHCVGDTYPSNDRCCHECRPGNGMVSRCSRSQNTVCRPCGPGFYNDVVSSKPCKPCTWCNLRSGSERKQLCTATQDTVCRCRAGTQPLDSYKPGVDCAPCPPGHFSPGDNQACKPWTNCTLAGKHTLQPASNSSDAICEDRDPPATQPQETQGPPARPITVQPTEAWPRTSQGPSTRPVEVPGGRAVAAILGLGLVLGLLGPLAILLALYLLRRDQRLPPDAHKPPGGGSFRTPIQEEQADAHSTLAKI

T4: TNFRSF4
T4 construct: also called TNF Receptor Superfamily Member 4; canonical isoform
T4 chain: T3 sequence (looked up)

B1: recombinant murine CD40 protein (receptor, UniProt P27512 24-193, looked up)
chain: VTCSDKQYLHDGQCCDLCQPGSRLTSHCTALEKTQCHPCDSGEFSAQWNREIRCHQHRHCEPNQGLRVKKEGTAESDTVCTCKEGQHCTSKDCEACAQHTPCIPGFGVMEMATETTDTVCHPCPVGFFSNQSSLFEKCYPWTSCEDKNLEVLQKGTSQTNVICGLKSRMR
notes: also called mCD40
B2: murine CD172a(SIRPα)-Fc-CD40L chimeric protein (Fc fusion)
chain 1: KELKVTQPEKSVSVAAGDSTVLNCTLTSLLPVGPIRWYRGVGPSRLLIYSFAGEYVPRIRNVSDTTKRNNMDFSIRISNVTPADAGIYYCVKFQKGSSEPDTEIQSGGGTEVYVLAKPSPPEVSGPADRGIPDQKVNFTCKSHGFSPRNITLKWFKDGQELHPLETTVNPSGKNVSYNISSTVRVVLNSMDVNSKVICEVAHITLDRSPLRGIANLSNFIRVSPTVKVTQQSPTSMNQVNLTCRAERFYPEDLQLIWLENGNVSRNDTPKNLTKNTDGTYNYTSLFLVNSSAHREDVVFTCQVKHDQQPAITRNHTVLGFAHSSDQGSMQTFPDNNATHNWN
chain 2: HRRLDKVEEEVNLHEDFVFIKKLKRCNKGEGSLSLLNCEEMRRQFEDLVKDITLNKEEKKENSFEMQRGDEDPQIAAHVVSEANSNAASVLQWAKKGYYTMKSNLVMLENGKQLTVKREGLYYVYTQVTFCSNREPSSQRPFIVGLWLKPSSGSERILLKAANTHSSSQLCEQQSVHLGGVFELQAGASVFVNVTEASQVIHRVGFSSFGLLKL
B3: recombinant human OX40L-Fc (Fc fusion, UniProt P23510 51-183, looked up)
chain: QVSHRYPRIQSIKVQFTEYKKEKGFILTSQKEDEIMKVQNNSVIINCDGFYLISLKGYFSQEVNISLHYQKDEEPLFQLKKVRSVNSLMVASLTYKDKVYLNVTTDNTSLDDFHVNGGELILIHQNPGEFCVL
notes: Positive control in SPR; not shown: Fc not described
B4: murine PD-1-Fc-OX40L chimeric protein (Fc fusion)
chain 1: LEVPNGPWRSLTFYPAWLTVSEGANATFTCSLSNWSEDLMLNWNRLSPSNQTEKQAAFCNGLSQPVQDARFQIIQLPNRHDFHMNILDTRRNDSGIYLCGAISLHPKAKIEESPGAELVVTERILETSTRYPSPSPKPEGRFQGM
chain 2: SSSPAKDPPIQRLRGAVTRCEDGQLFISSYKNEYQTMEVQNNSVVIKCDGLYIIYLKGSFFQEVKIDLHFREDHNPISIPMLNDGRRIVFTVVASLAFKDKVYLTVNAPDTLCEHLQINDGELIVVQLTPGYCAPEGSYHSTVNQVPL
B5: human PD-1-Fc-OX40L chimeric protein treated with the deglycosylase PNGase F (Fc fusion)
chain: LDSPDRPWNPPTFSPALLVVTEGDNATFTCSFSNTSESFVLNWYRMSPSNQTDKLAAFPEDRSQPGQDCRFRVTQLPNGRDFHMSVVRARRNDSGTYLCGAISLAPKAQIKESLRAELRVTERRAEVPTAHPSPSPRPAGQFQSKYGPPCPSCPAPEFLGGPSVFLFPPKPKDTLMISRTPEVTCVVVDVSQEDPEVQFNWYVDGVEVHNAKTKPREEQFNSTYRVVSVLTVLHQDWLSGKEYKCKVSSKGLPSSIEKTISNATGQPREPQVYTLPPSQEEMTKNQVSLTCLVKGFYPSDIAVEWESNGQPENNYKTTPPVLDSDGSFFLYSRLTVDKSSWQEGNVFSCSVMHEALHNHYTQKSLSLSLGKIEGRMDQVSHRYPRIQSIKVQFTEYKKEKGFILTSQKEDEIMKVQNNSVIINCDGFYLISLKGYFSQEVNISLHYQKDEEPLFQLKKVRSVNSLMVASLTYKDKVYLNVTTDNTSLDDFHVNGGELILIHQNPGEFCVL
modifications: N-glycans removed with PNGase F
notes: also called deglycosylated hPD-1-Fc-OX40L
B6: human PD-1-Fc-OX40L chimeric protein (Fc fusion)
chain: B5 chain
notes: Glycosylated; also called hPD-1-Fc-OX40L

Columns and labels:
[1] = target: B2; test: SPR, binding to mCD40
[2] = target: T5, murine CD40 expressed on CHOK1 cells (CHOK1/mCD40) (murine, UniProt P27512 20-289); test: flow cytometry on CHOK1/mCD40 cells
T5 construct: whole, on cells

[3] = target: T1, recombinant human OX40-His protein; test: SPR, His-tagged target on ProteOn HTG tris-NTA chip, positive control
From the text: Specifically, polyhistidine-tagged versions of recombinant human PD-L1, PD-L2, or OX40 was bound to ProteOn HTG tris-NTA chips (BIORAD).

[4] = target: T2, OX40 receptor used in the functional …; test: ELISA, plate-bound OX40, detection with αOX40L and HRP detection antibody; fold dilution series
FcRn-His (Example 11) = target: T6, FcRn-His (Example 11); test: SPR (BioRad ProteOn XPR 360), His-tagged target chip-bound
T6 construct: A beta-2-microglobulin chain is not mentioned

[5] = target: T2, OX40 receptor used in the functional …; test: functional ELISA on human OX40; x axis is dilution (1 to 16), concentration not given
[6] = target: plate-bound recombinant human PD-L1 protein (human, UniProt Q9NZQ7 19-238, limits assumed); test: functional ELISA on human PD-L1; x axis is dilution (1 to 16), concentration not given
[7] = target: T3, human OX40 expressed on Jurkat cells …; test: flow cytometry on Jurkat-hOX40 cells; Jurkat cells without hOX40 as control
Galectin-1 = Galectin-1 (human, UniProt P09382 2-135, limits assumed); test: microarray containing about 6,000 human membrane proteins
TNFRSF4 = target: T4, TNFRSF4; test: as above

T6 sequence (Q61559 22-297, chain 1 of 2): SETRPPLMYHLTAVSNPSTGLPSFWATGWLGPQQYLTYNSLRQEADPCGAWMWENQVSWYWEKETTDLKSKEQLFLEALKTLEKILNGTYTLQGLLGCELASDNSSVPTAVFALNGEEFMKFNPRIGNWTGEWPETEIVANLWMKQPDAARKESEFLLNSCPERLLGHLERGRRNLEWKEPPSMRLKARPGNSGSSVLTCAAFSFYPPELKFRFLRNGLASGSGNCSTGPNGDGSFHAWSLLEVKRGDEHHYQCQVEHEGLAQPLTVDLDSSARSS
T6 sequence (P01887 21-119, chain 2 of 2, further chain): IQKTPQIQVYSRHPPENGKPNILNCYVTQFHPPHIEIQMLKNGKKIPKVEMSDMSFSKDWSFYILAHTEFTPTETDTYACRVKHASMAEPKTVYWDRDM
plate-bound recombinant human PD-L1 protein, sequence (Q9NZQ7 19-238 limits assumed): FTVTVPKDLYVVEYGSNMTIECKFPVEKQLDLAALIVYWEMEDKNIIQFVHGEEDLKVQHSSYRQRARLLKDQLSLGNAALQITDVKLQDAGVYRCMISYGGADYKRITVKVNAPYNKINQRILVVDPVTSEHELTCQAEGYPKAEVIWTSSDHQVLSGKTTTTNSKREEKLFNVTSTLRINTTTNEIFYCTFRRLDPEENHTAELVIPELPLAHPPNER
Galectin-1, sequence (P09382 2-135 limits assumed): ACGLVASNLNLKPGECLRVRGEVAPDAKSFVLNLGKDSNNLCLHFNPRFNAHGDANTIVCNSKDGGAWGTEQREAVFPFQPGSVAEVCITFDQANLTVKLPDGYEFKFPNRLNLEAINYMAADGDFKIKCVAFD
T5 sequence (P27512 20-289): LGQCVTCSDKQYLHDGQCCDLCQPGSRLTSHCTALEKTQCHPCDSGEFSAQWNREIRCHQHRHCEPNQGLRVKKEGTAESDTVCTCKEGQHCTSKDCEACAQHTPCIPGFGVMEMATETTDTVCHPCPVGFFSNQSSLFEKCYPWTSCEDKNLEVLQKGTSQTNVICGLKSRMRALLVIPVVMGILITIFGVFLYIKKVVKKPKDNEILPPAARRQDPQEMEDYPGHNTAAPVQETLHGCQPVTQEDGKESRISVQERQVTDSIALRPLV

With B1 the koff [1] was 5.51e-05 s⁻¹ and the kon [1] was 72800 M⁻¹ s⁻¹.

For B2, the EC50 [2] was 20.2 nM.

B3: binds [3]; binds [4].

For B4, the Kd (FcRn-His (Example 11)) was 55.6 nM, the koff (FcRn-His (Example 11)) was 0.00262 s⁻¹ and the kon (FcRn-His (Example 11)) was 47200 M⁻¹ s⁻¹.

B5: binds [5]; binds [6]; binds [7].

B6: binds (Galectin-1); binds (TNFRSF4).

— US20240368242A1 (SHATTUCK LABS, published 2024)
